“And” between values parts separate entries of the source, which are not always exact repeats. Identical values can stand only once.
B1: PKL-Nluc fusion, nanoluciferase fused to the N-terminus of PKL, recombinant (enzyme)
chain: not shown
notes: Pyruvate kinase, liver isoform (PKL), human; The bands were detected by in-gel luminescence of the Nluc part; source: recombinant, expressed and purified; not shown: Nluc, N-terminal, kept
B2: liver isoform of pyruvate kinase (PKL), wild type, recombinant (enzyme)
chain: not shown
notes: Pyruvate kinase, liver isoform (PKL), human; The same molecule is used for the native PAGE protein and for the crystallised protein; Construct details are probably in the Supporting Information; also called PKLwt; source: recombinant

Target: the molecule itself
Assay: native gel or EMSA; recombinant protein incubated with tracer IV (0.15-10 uM) or DMSO at room temperature, native PAGE on 3%-12% bis-tris gel; bands seen by in-gel luminescence (Nluc substrate), colloidal blue staining and western blot; no FBP

Protein	stoichiometry N
B1	4 and 2
B2	4

Reference: PMC12518693, “Potent Fluorescent Probe for Target‐Engagement Studies of Allosteric Pyruvate Kinase Modulators” (Angewandte Chemie (International Ed. in English), 2025)
